B1: Tryptophan synthase alpha chain, P0A877 (parent)
chain: MERYESLFAQLKERKEGAFVPFVTLGDPGIEQSLKIIDTLIEAGADALELGIPFSDPLADGPTIQNATLRAFAAGVTPAQCFEMLALIRQKHPTIPIGLLMYANLVFNKGIDEFYAQCEKVGVDSVLVADVPVEESAPFRQAALRHNVAPIFICPPNADDDLLRQIASYGRGYTYLLSRAGVTGAENRAALPLNHLVAKLKEYNAAPPLQGFGISAPDQVKAAIDAGAAGAISGSAIVKIIEQHINEPEKMLAALKVFVQPMKAATRS

The variants in this series derive from B1. To be noted: Escherichia coli (strain K12); pH 7.8; 23 °C; Urea; Absorbance; Potassium phosphate 10 mM; transition: 3; reversible: yes; structure 1WQ5; whole UniProt chain shown.

Where “and” joins values, the source holds several entries; their conditions need not be identical. Identical values can stand only once.

In the case of MERYESLFAQLKERKEGAFVPFVTLGDPGIEQSLKIIDTLIEAGADALELGIPFSDPLADGPTIQNATLRAFAAGVTPAQCFEMLALIRQKHPTIPIGLLMYANLVFNKGIDEFYAQCEKVGVDSVLVADVPVEESAPWRQAALRHNVAPIFICPPNADDDLLRQIASYGRGYTYLLSRAGVTGAENRAALPLNHLVAKLKEYNAAPPLQGFGISAPDQVKAAIDAGAAGAISGSAIVKIIEQHINEPEKMLAALKVFVQPMKAATRS [F139W], the “ddG of mutation (higher = less stable)” value was 0.7 kcal/mol and 0.6 kcal/mol; the denaturant m value is 2.3 kcal/mol/M and 1.2 kcal/mol/M; the “denaturant midpoint (higher = more stable)” value (shortened to “denaturant midpoint”) was 2.46 M and 3.8 M; the unfolding free energy is 5.7 kcal/mol and 4.6 kcal/mol.

MERYESLFAQLKERKEGAFVPFVTLGDPGIEQSLKIIDTLIEAGADALELGIPFSDPLADGPTIQNATLRAFAAGVTPAQCFEMLALIRQKHPTIPIGLLMYANLVFNKGIDEFYAQCEKVGVDSVLVADVPVEESAPFRQAALRHNVAPIFICPPNADDDLLRQIASYGRGYTYLLSRAGVTGAENRAALPLNHLVAKLKEYNAAPPLQGFGISAPDQVKAAIDAGAAGAISGSAIVKIIEQHINEPEKMLAALKVWVQPMKAATRS [F258W]: the “ddG of mutation (higher = less stable)” value was 1.4 kcal/mol and 1 kcal/mol; the denaturant m value was 1.9 kcal/mol/M and 1.2 kcal/mol/M; the “denaturant midpoint” value was 2.68 M and 3.58 M; the unfolding free energy is 5 kcal/mol and 4.2 kcal/mol.

Consider MERYESLFAQLKERKEGAFVPFVTLGDPGIEQSLKIIDTLIEAGADALELGIPFSDPLADGPTIQNATLRAFAAGVTPAQCFEMLALIRQKHPTIPIGLLMYANLVFNKGIDEFYAQCEKVGVDSVLVADVPVEESAPWRQAALRHNVAPIFICPPNADDDLLRQIASYGRGYTYLLSRAGVTGAENRAALPLNHLVAKLKEYNAAPPLQGFGISAPDQVKAAIDAGAAGAISGSAIVKIIEQHINEPEKMLAALKVWVQPMKAATRS [F139W F258W], for which the “ddG of mutation (higher = less stable)” value amounted to 0.8 kcal/mol; the denaturant m value is 2.1 kcal/mol/M and 1.3 kcal/mol/M; the “denaturant midpoint” value was 2.67 M and 3.51 M; the unfolding free energy was 5.6 kcal/mol and 4.4 kcal/mol.
